The chains are these.
B1: Pistol ribozyme (parent)
chain: GGGUCGUUGUUCCAUAAUCGCGUGGAUAUGGCACGCAAGUUUCUACCGGGCACCGUAAAUGUCCGACUGGAGCCGUUCGGGCGGCUAUAAACAGACCUCAGGCCCGAAGCGUGGCGGCACCUGCCGCCGGUGGUAAAAAAGAUCGGAAGAGCACACGUCU

The variants in this data set derive from B1. Put plainly: aptazyme ON/OFF ratio, guanine; higher = stronger switching; co-transcriptional cleavage with and without guanine.
Turning to U7A U8G G9C U10G U11C C12A C13U, the “aptazyme ON/OFF ratio” value stood at 1.29.
Regarding U7A U8G G9C U10G U11C C12A C13A, the “aptazyme ON/OFF ratio” value is 1.38.
With U7A U8G G9C U10G U11C C12A C13G, the “aptazyme ON/OFF ratio” value amounted to 1.22.
For U7A U8G G9C U10G U11C, the “aptazyme ON/OFF ratio” value came to 1.04.
Consider U7A U8G G9C U10G U11A, for which the “aptazyme ON/OFF ratio” value is 1.07.
Take U7A U8G G9C U10G U11G: the “aptazyme ON/OFF ratio” value is 1.25.
In the case of U7A U8G G9U C13G, the “aptazyme ON/OFF ratio” value turned out to be 1.14.
In the case of U7A U8G G9U C13U it was 1.96.
As for U7A U8G G9U C13A, the “aptazyme ON/OFF ratio” value is 1.25.
For the variant U7A U8G G9U C12A C13G, the “aptazyme ON/OFF ratio” value worked out at 1.44.
For U7A U8G G9U C12A C13U, the “aptazyme ON/OFF ratio” value was determined as 1.2.
Regarding U7A U8G G9U C12A C13A, the “aptazyme ON/OFF ratio” value was found to be 1.28.
Consider U7A U8G G9U U10A U11C C12A, for which the “aptazyme ON/OFF ratio” value turned out to be 1.39.
U7A U8G G9U U10A U11C C12U: the “aptazyme ON/OFF ratio” value came to 1.04.
In the case of U7A U8G G9U U10A U11C C12G, the “aptazyme ON/OFF ratio” value stood at 1.43.
In the case of U7A U8G G9U U10A U11A C12A C13U, the “aptazyme ON/OFF ratio” value was 1.42.
Take U7A U8G G9U U10A U11A C12A C13A: the “aptazyme ON/OFF ratio” value came to 1.24.
U7A U8G G9U U10A U11A C12A C13G: the “aptazyme ON/OFF ratio” value was 1.25.
For U7A U8G G9C U11C C12G C13U, the “aptazyme ON/OFF ratio” value worked out at 1.37.
In the case of U7A U8G G9C U11C C12G C13G it was 1.11.
In the case of U7A U8G G9C U11C C12G C13A it was 1.19; in that of U7A U8G G9C U10G U11A C12A, 1.42.
With U7A U8G G9C U10G U11A C12U, the “aptazyme ON/OFF ratio” value was 1.2.
The same measure for U7A U8G G9C U10G U11A C12G: 1.39; for U7A U8G G9U U10G C12G C13U: 1.3.
Turning to U7A U8G G9U U10G C12G C13A, the “aptazyme ON/OFF ratio” value turned out to be 1.37.
As for U7A U8G G9U U10G C12G C13G, the “aptazyme ON/OFF ratio” value came to 1.11.
Take U7A U8G G9C U10C U11A C12U: the “aptazyme ON/OFF ratio” value was found to be 1.13.
Consider U7A U8G G9C U10C U11A C12A, for which the “aptazyme ON/OFF ratio” value came to 1.21.
For U7A U8G G9C U10C U11A C12G, the “aptazyme ON/OFF ratio” value was 1.23.
Turning to U7A U8G G9C U10C U11G C13A, the “aptazyme ON/OFF ratio” value is 1.25.
Consider U7A U8G G9C U10C U11G C13U, for which the “aptazyme ON/OFF ratio” value came out at 1.23.
Take U7A U8G G9C U10C U11G C13G: the “aptazyme ON/OFF ratio” value came to 1.26.
In the case of U7A U8G G9U U10A U11G C13G it was 1.12.
As to U7A U8G G9U U10A U11G C13U, the “aptazyme ON/OFF ratio” value turned out to be 1.37.
The same measure for U7A U8G G9U U10A U11G C13A: 1.14; for U7A U8G G9C U10G U11C C12U: 1.07; for U7A U8G G9C U10G U11C C12G: 1.3.
Consider U7A U8G G9C U10G U11C C12A, for which the “aptazyme ON/OFF ratio” value worked out at 1.47.
Consider U7A U8G G9C U10C C12G C13A, for which the “aptazyme ON/OFF ratio” value is 1.23.
In the case of U7A U8G G9C U10C C12G C13U it was 1.46.
In the case of U7A U8G G9C U10C C12G C13G it was 1.2; in that of U7A U8G G9C U10C U11C C12U, 0.975.
Regarding U7A U8G G9C U10C U11C C12G, the “aptazyme ON/OFF ratio” value amounted to 1.05.
On to U7A U8G G9C U10C U11C C12A, for which the “aptazyme ON/OFF ratio” value worked out at 1.06.
Take U7A U8G G9U U10C C12U C13U: the “aptazyme ON/OFF ratio” value was 1.31.
On to U7A U8G G9U U10C C12U C13G, for which the “aptazyme ON/OFF ratio” value came to 1.54.
In the case of U7A U8G G9U U10C C12U C13A, the “aptazyme ON/OFF ratio” value turned out to be 1.34.
Consider U7A U8G G9C U11C C13G, for which the “aptazyme ON/OFF ratio” value was 1.1.
Regarding U7A U8G G9C U11C C13A, the “aptazyme ON/OFF ratio” value was 1.37.
As for U7A U8G G9C U11C C13U, the “aptazyme ON/OFF ratio” value is 1.44.
The same measure for U7A U8G G9C U10G U11A C13U: 1.15; for U7A U8G G9C U10G U11A C13G: 1.25; for U7A U8G G9C U10G U11A C13A: 1.11.
Turning to U7A U8G G9C U11A C12G C13G, the “aptazyme ON/OFF ratio” value worked out at 1.35.
For the variant U7A U8G G9C U11A C12G C13A, the “aptazyme ON/OFF ratio” value was determined as 1.11.
Regarding U7A U8G G9C U11A C12G C13U, the “aptazyme ON/OFF ratio” value turned out to be 1.28.
On to U7A U8G G9C U10C U11G C12G C13A, for which the “aptazyme ON/OFF ratio” value worked out at 1.18.
Take U7A U8G G9C U10C U11G C12G C13U: the “aptazyme ON/OFF ratio” value was 1.09.
For U7A U8G G9C U10C U11G C12G C13G, the “aptazyme ON/OFF ratio” value amounted to 1.18.
Take U7A U8G G9C U10G U11G C12G C13U: the “aptazyme ON/OFF ratio” value was determined as 1.14.
As for U7A U8G G9C U10G U11G C12G C13A, the “aptazyme ON/OFF ratio” value worked out at 1.32.
For the variant U7A U8G G9C U10G U11G C12G C13G, the “aptazyme ON/OFF ratio” value stood at 1.24.
With U7A U8G G9U U10A U11C C13G, the “aptazyme ON/OFF ratio” value was 1.09.
Regarding U7A U8G G9U U10A U11C C13U, the “aptazyme ON/OFF ratio” value was found to be 0.998.
Regarding U7A U8G G9U U10A U11C C13A, the “aptazyme ON/OFF ratio” value came to 1.02.
Regarding U7A U8G G9U U10C U11C C13U, the “aptazyme ON/OFF ratio” value is 1.07.
In the case of U7A U8G G9U U10C U11C C13A, the “aptazyme ON/OFF ratio” value was found to be 1.04.
The same measure for U7A U8G G9U U10C U11C C13G: 1.12; for U7A U8G G9U U10G C12G: 1.15; for U7A U8G G9U U10G C12U: 1.28.
On to U7A U8G G9U U10G C12A, for which the “aptazyme ON/OFF ratio” value was determined as 1.21.
Turning to U7A U8G G9U U10C U11C C12G C13U, the “aptazyme ON/OFF ratio” value came out at 1.46.
Consider U7A U8G G9U U10C U11C C12G C13A, for which the “aptazyme ON/OFF ratio” value was 1.2.
Regarding U7A U8G G9U U10C U11C C12G C13G, the “aptazyme ON/OFF ratio” value worked out at 1.11.
For the variant U7A U8G G9C U10C U11A C12G C13U, the “aptazyme ON/OFF ratio” value is 1.17.
Take U7A U8G G9C U10C U11A C12G C13A: the “aptazyme ON/OFF ratio” value was determined as 1.23.
U7A U8G G9C U10C U11A C12G C13G: the “aptazyme ON/OFF ratio” value worked out at 1.21.
For U7A U8G G9U U10C U11A C12A C13U, the “aptazyme ON/OFF ratio” value stood at 1.47.
For U7A U8G G9U U10C U11A C12A C13G, the “aptazyme ON/OFF ratio” value was found to be 1.37.
Take U7A U8G G9U U10C U11A C12A C13A: the “aptazyme ON/OFF ratio” value came out at 1.26.
The same measure for U7A U8G G9U C12U C13U: 1.26.
In the case of U7A U8G G9U C12U C13G it was 1.17.

These data come from the RNAGym collection of RNA variant scans (doi:10.1021/acssynbio.7b00057).
